In assay [1] the target is FKBP-CtermEYFP173 (human; Aequorea victoria) (UniProt P62942). Nature of the assay: cell-based or functional assay.
The target in assay [2] is FRB-CtermEYFP173 (human; Aequorea victoria) (UniProt P42345). As to the kind of experiment: cell-based or functional assay.
Assay [3] deals with FKBP / FRB (FKBP binding part of FRAP) interaction (Homo sapiens, UniProt P42345+P62942). Nature of the assay: Rapamycin-induced E[F64L]YFP fragment complementation (EYFP fluorescence) in stably transfected CHO-hIR cells. In kind it is cell-based. The note with it: CHO-hIR [PS1767+PS1768], 1 μM rapamycin.
Protocol: Probes were co-transfected in pairs into CHO-hIR cells (supra), PS1769 with PS1771 and PS1767 with PS1768, using the transfection agent FuGENE™ 6 (Boehringer Mannheim Corp, USA) according to the method recommended by the suppliers. Cells were cultured in growth medium (HAM's F12 nutrient mix with Glutamax-1, 10% foetal bovine serum (FBS), 100 μg penicillin-streptomycin mixture ml^−1 (GibcoBRL, supplied by Life Technologies, Denmark)). Transfected cells were cultured in this medium, with the addition of two selection agents appropriate to the plasmids being used, being 1 mg/ml zeocin plus 0.5 mg/mlG418 sulphate. […]
After 10 to 12 days culture in the continuous presence of the selection agents, the resulting cell lines were judged to be stably transfected. For fluorescence microscopy, aliquots of cells were transferred to Lab-Tek chambered cover glasses (Nalge Nunc International, Naperville USA) and allowed to adhere for at least 24 hours to reach about 80% confluence. Images were routinely collected using a Nikon Diaphot 300 inverted fluorescence microscope (Nikon Corp., Tokyo, Japan) using ×20 (dry) and/or ×40 (oil immersion) objectives and coupled to a Orca ER charged coupled device (CCD) camera (Hammamatsu Photonics K. K., Hammamatsu City, Japan). […]
This is easily accomplished through fluorescence activated cell sorting (FACS) methods. […]

Some results are limits rather than exact numbers.

Sequence of FKBP-CtermEYFP173 (human; Aequorea victoria) (P62942 other isoform, or with tags, fused parts or gaps, form in doubt): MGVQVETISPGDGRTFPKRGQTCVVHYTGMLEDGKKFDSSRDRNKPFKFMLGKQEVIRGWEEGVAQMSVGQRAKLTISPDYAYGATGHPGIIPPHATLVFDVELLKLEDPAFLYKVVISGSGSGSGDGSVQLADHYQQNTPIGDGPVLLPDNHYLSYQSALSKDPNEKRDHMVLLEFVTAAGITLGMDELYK

For “NtermE[F64L]YFP172-FRB (from UniProt P42345 2025-2114)”, in assay [1], the EC50 of FK506 against 100 nM rapamycin, EYFP fluorescence/cell, 'mid to low-green' FACS group came out at 1.2 µM; the EC50 of rapamycin for EYFP fluorescence, 'black' FACS group, 7 and 30 hours is 0.1 µM; the EC50 of rapamycin for EYFP fluorescence, 'medium to low-green' FACS group, 7 and 30 hours is 0.25 µM; the half-time for development of fluorescence after 3 uM rapamycin stood at 5 h. In assay [1], this compound displayed an increase in EYFP fluorescence over the unstimulated value, 'black' FACS group of over 20 fold; an increase in EYFP fluorescence over the unstimulated value, 'medium to low-green' FACS group of over 20 fold; a proportion of cells with appreciable EYFP fluorescence before rapamycin (t=0) of under 5%; a proportion of cells with significantly greater EYFP fluorescence 4 hours after 1 uM rapamycin of 40%. This compound showed a proportion of responding cells 16 hours after 1 uM rapamycin in assay [1] of 70%.

“NtermE[F64L]YFP172-FKBP (from UniProt P62942 1-108)” returned an EC50 of FK506 against 100 nM rapamycin, EYFP fluorescence/cell, 'black' FACS group in assay [2] of 1.2 µM.

In the case of `CO[C@H]1C[C@@H]2CC[C@@H](C)[C@@](O)(O2)C(=O)C(=O)N2CCCC[C@H]2C(=O)O[C@H]([C@H](C)C[C@@H]2CC[C@@H](O)[C@H](OC)C2)CC(=O)[C@H](C)/C=C(\C)[C@@H](O)[C@@H](OC)C(=O)[C@H](C)C[C@H](C)/C=C/C=C/C=C/1C` [rapamycin], in assay [3] (after 4 hours), the “Proportion of cells with significantly greater EYFP fluorescence” value is “approximately 40%”. In addition, in assay [3] (after 16 hours), the “Proportion of the cell population encompassed by the EYFP fluorescence response” value is listed as “approximately 70%”.

The values are drawn from patent US20030219717A1, “Fluorophore complementation products” (priority 2002, published 2003).
